Source: article PMC5560758, “SCF^AtPP2-B11 modulates ABA signaling by facilitating SnRK2.3 degradation in Arabidopsis thaliana” (PLoS Genetics, 2017)

Target: T1, MBP-SnRK2.3 (Arabidopsis thaliana, UniProt Q39193 1-361)
T1 construct: SnRK2.3 (SnRK2I) of Arabidopsis thaliana; ORF cloned into pMAL-c2x; pMAL-c2x places MBP at the N-terminus (surmised from the vector); also called SnRK2.3-MBP; source: E. coli BL21, purified (Amylose Resin)
T1 sequence (looked up): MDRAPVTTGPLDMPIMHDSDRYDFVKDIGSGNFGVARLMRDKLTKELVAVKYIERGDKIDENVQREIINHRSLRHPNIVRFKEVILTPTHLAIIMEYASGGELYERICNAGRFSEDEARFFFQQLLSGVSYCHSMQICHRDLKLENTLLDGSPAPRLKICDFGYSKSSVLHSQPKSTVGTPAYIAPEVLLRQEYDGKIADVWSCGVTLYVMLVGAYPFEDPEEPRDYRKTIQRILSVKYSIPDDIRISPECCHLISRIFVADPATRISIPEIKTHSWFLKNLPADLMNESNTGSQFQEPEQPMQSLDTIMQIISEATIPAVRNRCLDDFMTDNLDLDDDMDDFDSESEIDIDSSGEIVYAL
Test: pull-down; AtPP2-B11-GST held on GST beads, incubated with MBP-SnRK2s 2 h at room temperature or 4°C overnight; washed four times; anti-MBP blot
Settings: both partners purified

binding result: binds
B1: GST-AtPP2-B11 (natural protein, Arabidopsis thaliana, UniProt Q949S5 1-257, looked up)
chain: MNNLPEDCIAKILSLTTPLDVCRLSAVSSIFRSAAGSDDVWNHFLPADFPAGFAAPAGLPTRKQLFFSLVDNPLLINGTLLSFSLERKSGNKCYMMAARALNIVWGHEQRYWHWISLPNTRFGEVAELIMVWWLEITGKINITLLSDDTLYAAYFVFKWNHSPYGFRQPVETSLVLADTESTDNVVQPSMISLMQDSGGEEGQSPVLRRDGWYEVELGQFFKRRGDLGEIEMSLKETKGPYEKKGLIVYGIEIRPVP
notes: AtPP2-B11, F-box protein of Arabidopsis thaliana, 257 amino acids; ORF cloned into pGEX-4T-1; pGEX-4T-1 places GST at the N-terminus (surmised from the vector); also called AtPP2-B11-GST; source: E. coli BL21, purified (Glutathione Agarose)
